Measurements reported in patent US20240317846A1 (priority 2021, published 2024).
Values joined by “and” are separate entries in the source; they are usually repeats but may differ in a detail not shown here. Equal entries are not always repeated. “Also recorded” adds a separate entry of the source. Where two headings read alike, the source gives them in different places. Marks after values point to notes of the source that are not given here.

What was measured:
[1] = tested on: COVID-19 associated chronic ARDS; type: in vivo, human
Experimental: Hospitalized subject with confirmed COVID-19 pneumonia and established risk factors for poor outcomes was treated in the ICU for 12 weeks using standard supportive care for chronic acute respiratory distress syndrome (ARDS). […] Patient characteristics, clinical and laboratory outcomes, and adverse events were recorded through duration of hospitalization.

[2] = target: glycosylated human GM-CSF (Homo sapiens, UniProt P04141); assay: Binding affinity for GM-CSF
Sequence of glycosylated human GM-CSF (P04141 18-144): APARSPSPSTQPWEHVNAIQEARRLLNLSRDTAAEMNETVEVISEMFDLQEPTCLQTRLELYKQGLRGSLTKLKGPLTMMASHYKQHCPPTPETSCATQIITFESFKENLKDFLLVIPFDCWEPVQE

[3] = Pre-clinical toxicology program; type: in vivo; conditions: data not shown
[4] = Four completed clinical trials (healthy volunteers, asthma, rheumatoid arthritis, chronic myelomonocytic leukemia); type: in vivo, human; conditions: 113 individuals received lenzilumab
[5] = tested on: SARS-CoV-2 infection; type: in vivo, human; conditions: paper examples
[6] = tested on: severe and critical COVID-19 pneumonia
[7] = tested on: severe COVID-19 pneumonia
[8] = tested on: COVID-19 pneumonia
[9] = tested on: severe COVID-19 pneumonia; conditions: for Time to Recovery: placebo 8
[10] = lenzilumab alone or in the combination of the example
[11] = one patient, 48 hours post-lenzilumab vs pretreatment
[12] = Lenzilumab group n = 12, control 11
[13] = repeated measures ANOVA, P<0.001

B1: Lenzilumab: first-in-class Humaneered recombinant monoclonal antibody targeting human GM-CSF, derived from mouse antibody LMM102 (antibody, chains of the INN, looked up, V domains shown)
VH: QVQLVQSGAEVKKPGASVKVSCKASGYSFTNYYIHWVRQAPGQRLEWMGWINAGNGNTKYSQKFQGRVTITRDTSASTAYMELSSLRSEDTAVYYCVRRQRFPYYFDYWGQGTLVTVSS
VL: EIVLTQSPATLSVSPGERATLSCRASQSVGTNVAWYQQKPGQAPRVLIYSTSSRATGITDRFSGSGSGTDFTLTISRLEPEDFAVYYCQQFNKSPLTFGGGTKVEIK
Oxygen demand one week post lenzilumab ([1]; person, lenzilumab on week 13 of hospitalization): decreased from high-flow to low-flow nasal cannula
Infusion-related or systemic side effects ([1]; single patient): No infusion-related or systemic side effects
Lymphopenia post lenzilumab ([1]; single patient): appeared to improve
Time from lenzilumab to discharge home ([1]; single patient, discharged on 4L nasal cannula): Sixteen
Binding affinity [2]: picomolar range
Kd [2]: 0.025 nM
Off-rate [2]: slow off-rate
No Observed Adverse Effect Level (NOAEL) [3]: > 100 mg/kg/week
Safety in completed clinical development studies [4]: No treatment emergent serious adverse events (SAEs) or Suspected Unexpected Serious Adverse Reactions (SUSARSs); also recorded: very well tolerated
2 point improvement in the NIAID eight point ordinal hospital scale [5]: faster
Number of hospital days [5]: reduction
Permanent pulmonary function impairment [5]: reduction
Time to recovery (6, 7, or 8 on the eight point ordinal hospital scale) [5]: faster
Mortality rates [5, 10]: reduction
Patients requiring ICU admission [5, 10]: reduction
Patients requiring mechanical ventilation [5, 10]: reduction
Median time to discharge post-lenzilumab ([6]; 11 discharged patients): 5 days
Infusion reactions ([6]; 12 patients): no infusion reactions
Median time to a 2-point clinical improvement ([6]; 12 patients): 5 days
Patients discharged ([6]; 12 patients): 11 of 12
Patients discharged on home oxygen ([6]; 12 patients): 42%
Patients who required invasive mechanical ventilation ([6]; 12 patients): 8.3%
Clinical improvement of at least 2 points on the 8-point ordinal clinical endpoints scale, proportion of patients ([6]; 12 patients, 600 mg IV every 8 h x3): 92% and 91.7%
Mean IL-6 on day 3 following lenzilumab ([6]; baseline 26.8 pg/mL): 16.1 pg/mL
Mean CRP on day 3 following lenzilumab ([6]; baseline 137.3 mg/L): 51.2 mg/L
Absolute lymphocyte count on day 3 ([6]; baseline 0.89): 1.14e+09 L⁻¹
Mean absolute neutrophil count on day 3 post lenzilumab ([6]; baseline 5.1): 4.8e+09 L⁻¹
Mean hemoglobin on day 3 post lenzilumab ([6]; baseline 12.9): 11.4 g/dL
Mean temperature at day 3 ([6]; baseline 37.95): 36.97
Proportion of patients with SpO2/FiO2<315 at the end of observation ([6]; baseline 67%): 8%
Mean platelet count on day 3 post lenzilumab ([6]; baseline 217.7): 2.618e+11 L⁻¹
D-dimer after lenzilumab ([6]; individual patients 2 and 4): 1507 ng/mL and 1802 ng/mL
Ferritin after lenzilumab, at discharge ([6]; individual patients 3 and 5): 571 µg/L and 1223 µg/L
Patients whose SpO2/FiO2 improved to >315 on day 1 post-lenzilumab ([6]; of 8 patients with SpO2/FiO2<315 at baseline): four
Patients with a 2-point improvement on 8-point ordinal scale ([6]; of 12 patients): 1 patient
Patients with ≥3-point improvement on 8-point ordinal scale ([6]; of 12 patients): 10 patients
Cytokines involved in cytokine storm (G-CSF, MDC, GM-CSF, IL-1α, IFN-γ, IL-7, FLT-3L, IL-1rα, IL-6, IL-12p70) [6, 11]: significant reduction
LDH after lenzilumab ([6]; patient 4, hospital day 3): 388 U/L
Range of days to discharge ([6]; patient 9 pending): (3-14)*** days
Patients requiring mechanical invasive ventilation ([6]; patients 1-5): None
Time to fever resolution after lenzilumab administration ([6]; patients febrile at baseline): ≤ 48 h
Time to clinical two point improvement, faster than comparator antivirals ([6]; vs Remdesivir, Lopinavir-Ritonavir, Tocilizumab cohorts): more than 50%
Infusion reactions ([7]; 12 patients): no infusion reactions
Treatment-emergent adverse events attributable to lenzilumab ([7]; 12 patients): No treatment-emergent adverse events attributable to lenzilumab
Ventilator-free survival vs untreated group ([7]; Kaplan-Meier, log-rank P=0.06): favored the lenzilumab cohort
Days to resolution of fever ([7]; Lenzilumab group n = 12): 2 days
Incidence of IMV ([7]; Lenzilumab group n = 12): (8%)
Incidence of IMV and/or death, number of patients ([7]; Lenzilumab group n = 12): 1
Incidence of IMV, number of patients ([7]; Lenzilumab group n = 12): 1
Incidence of clinical improvement, number of patients ([7]; Lenzilumab group n = 12): 11
Incidence of death ([7]; Lenzilumab group n = 12): (8%)
Incidence of death, number of patients ([7]; Lenzilumab group n = 12): 1
Patients free of ARDS (SpO2/FiO2 of 315 or higher) by the end of observation ([7]; Lenzilumab group n = 12): 92%
Days to clinical improvement (median) [7, 12]: 5 days
Days to discharge from hospital (median) [7, 12]: 5 days
CRP reduction (mean) ([7]; after 4 days of treatment, control −0.95): 135.8
IL-6 concentration on day 4 following lenzilumab ([7]; baseline 28.6 pg/mL): 8.52 pg/mL
Mean absolute neutrophil count on day 4 post lenzilumab ([7]; baseline 5.1): 4.8e+09 L⁻¹
Mean hemoglobin on day 4 post lenzilumab ([7]; baseline 12.9): 11.4 g/dL
IL-6 reduction ([7]; baseline vs day 4): 20.1
ALC increase (mean) ([7]; baseline vs day 4, control 0.03): 0.46 × 10*9/L
Mean temperature reduction ([7]; baseline vs day 4, control 0.459): 1.075
PLT increase (mean) ([7]; baseline vs day 4, control 63.2): 52.5
Mean CRP after treatment ([7]; day 4, baseline 172.2 mg/L): 36.4 mg/L
Cytokines and chemokines involved in the cytokine storm [7, 11]: significant reduction
Mean SpO2/FiO2 over time post-treatment vs untreated [7, 13]: statistically significant difference
Proportion of patients free of ARDS over time vs untreated [7, 13]: significantly increased
Survival, Kaplan-Meier event estimate (mortality) ([8]; mITT, lenzilumab arm, day 28, placebo 13.9): 9.6%
Ventilator-Free Survival, Kaplan-Meier event estimate (IMV and/or death) ([8]; mITT, lenzilumab arm, day 28, placebo 22.1): 15.6%
SAEs attributed to lenzilumab ([8]; phase 3 trial): none were attributed to lenzilumab
Safety and tolerability ([8]; phase 3 trial): safe and well-tolerated
Increased likelihood of survival without IMV ([8]; relative to placebo, mITT): 54%
Increased likelihood of survival ([8]; relative to placebo, not statistically significant): 39% (NS)
Acute kidney injury ([9]; Grade ≥3, Lenzilumab N = 255): 5 (2.0) n (%)
Acute respiratory distress syndrome ([9]; Grade ≥3, Lenzilumab N = 255): 4 (1.6) n (%)
Acute respiratory failure ([9]; Grade ≥3, Lenzilumab N = 255): 18 (7.1) n (%)
Cardiac arrest ([9]; Grade ≥3, Lenzilumab N = 255): 8 (3.1) n (%)
Cardiac disorders ([9]; Grade ≥3, Lenzilumab N = 255): 15 (5.9) n (%)
Cardio-respiratory arrest ([9]; Grade ≥3, Lenzilumab N = 255): 3 (1.2) n (%)
General disorders and administration site conditions ([9]; Grade ≥3, Lenzilumab N = 255): 4 (1.6) n (%)
Hypotension ([9]; Grade ≥3, Lenzilumab N = 255): 2 (0.8) n (%)
Hypoxia ([9]; Grade ≥3, Lenzilumab N = 255): 15 (5.9) n (%)
Infections and infestations ([9]; Grade ≥3, Lenzilumab N = 255): 10 (3.9) n (%)
Multiple organ dysfunction syndrome ([9]; Grade ≥3, Lenzilumab N = 255): 3 (1.2) n (%)
Pneumonia bacterial ([9]; Grade ≥3, Lenzilumab N = 255): 0 (0.0) n (%)
Pulmonary embolism ([9]; Grade ≥3, Lenzilumab N = 255): 5 (2.0) n (%)
Renal and urinary disorders ([9]; Grade ≥3, Lenzilumab N = 255): 5 (2.0) n (%)
Respiratory failure ([9]; Grade ≥3, Lenzilumab N = 255): 24 (9.4) n (%)
Respiratory, thoracic and mediastinal disorders ([9]; Grade ≥3, Lenzilumab N = 255): 64 (25.1) n (%)
Sepsis ([9]; Grade ≥3, Lenzilumab N = 255): 2 (0.8) n (%)
Septic shock ([9]; Grade ≥3, Lenzilumab N = 255): 5 (2.0) n (%)
Shock ([9]; Grade ≥3, Lenzilumab N = 255): 3 (1.2) n (%)
Vascular disorders ([9]; Grade ≥3, Lenzilumab N = 255): 10 (3.9) n (%)
Kaplan-Meier Estimate of Failure to Achieve SWOV ([9]; ITT (n = 520)): 18.9%
Kaplan-Meier Estimate of Failure to Achieve SWOV ([9]; ITT subgroup n = 338, placebo 27.8%): 17.8%
Kaplan-Meier Estimate of Failure to Achieve SWOV ([9]; ITT, CRP <150 mg/L and age <85 (n = 359), placebo 22.6%): 11.5%
Safety and tolerability ([9]; LIVE-AIR): safe and well tolerated
Any AE ≥ Grade 3 ([9]; Lenzilumab N = 255): 68 (26.7) n (%)
Serum CRP levels following treatment ([9]; from two days after administration for 28 days, only in baseline CRP<150 mg/L): decreased CRP levels
Attributable serious adverse events ([9]; incl. hematologic, liver enzyme abnormalities, pulmonary alveolar proteinosis, infection): no attributable serious adverse events
Time to Recovery ([9]; mITT (n = 236)): 8 median days
Mortality ([9]; mITT (n = 236), placebo 13.9): 9.6%
Incidence IMV, ECMO or death ([9]; mITT (n = 236), placebo 21.4): 15.4%
Kaplan-Meier Estimate of Failure to Achieve SWOV ([9]; mITT (n = 479), Day 28, placebo 22.1%): 15.6%
Kaplan-Meier Estimate of Failure to Achieve SWOV ([9]; mITT subgroup n = 331 (remdesivir plus steroids per text), placebo 26.9%): 16.3%
Kaplan-Meier Estimate of Failure to Achieve SWOV ([9]; mITT, >2 days prior (n = 165), placebo 14.4%): 13.7%
Kaplan-Meier Estimate of Failure to Achieve SWOV ([9]; mITT, CRP <150 mg/L and age <85 (n = 336), placebo 21.1%): 8.5%
Time to Recovery ([9]; mITT, CRP <150 mg/L, Age <85 (n = 157)): 7 median days
Mortality ([9]; mITT, CRP <150 mg/L, Age <85 (n = 157), placebo 13.8): 6.6%
Incidence IMV, ECMO or death ([9]; mITT, CRP <150 mg/L, Age <85 (n = 157), placebo 19.5): 7.2%
Improvement in Time to Recovery ([9]; mITT, CRP<150 mg/L and age<85): 36%
Kaplan-Meier Estimate of Failure to Achieve SWOV ([9]; mITT, hospitalized 2 days prior or less (n = 297), placebo 27.6%): 16.5%
Infusion-related reactions ([9]; safety population): no infusion-related reactions
Serious adverse events, subjects ([9]; safety population, placebo 29.6%): 24.7%
Adverse events ≥Grade 3, subjects ([9]; safety population, placebo 32.7%): 26.7%
Improvement in SWOV ([9]; subjects hospitalized <2 days): 88%
